# Measured values taken from patent US20210317168.
# Biological target: purified MN gp120 (clade B), P05877
protein,measurement,value
"Calcium-dependent serine protease, complement component 1s (C1s) of CHO cells (protein) EPTMHGEILSPNYPQAYPNEIEKTWDIEVPEGFGIRLYFTHLDMELSENCEYDSVQIISGGVEEGRLCGQRTSKNANSPIVEEFQMPYNKLQVIFRSDFSNEERFTGFAAYYAAVDINECTDFTDVPCSHFCNNFIGGYFCSCPPEYFLHDDMRNCGVNCSGNVFTALIGEISSPNYPSPYPENSRCEYQILLEEGFQVVVTIRREDFDVEPADSEGNCQDSLLFAAKNQLFGPYCGNGFPGPLTIETHSNTLDIVFQTDLTEQRKGWKLRYHGDPIPCPKEITANSVWVPEKAKYVFKDVVKISCVDGFEVVEGNVGSAFFYSTCQSNGQWSNSRLQCQPVDCGIPEPIQNGKVDDPENTVFGSVIQYSCEEPYYYMEHEEHGGEYRCAANGSWVNDELGIELPKCVPVCGVPTEPIALQQRIFGGFPAKIQSFPWQVFFESPRAGGALIDEYWVLTAAHVVEGNSDPSMYVGTTFVRMEHLANAQRLTAERVIIHPGWKPADDLETRTNFDNDIALVQLKDPVKMGPTVSPICLPGTSSEYNPSKNDLGLISGWGRTEKRNIVPQLKGAKLPVTSLEKCQQVKGENSKVRADDYVFTSNMICAGEKGVDSCQGDSGGAFALQVPNVKDPKFYVAGLVSWGKKCGTYGIYTKVKNYMDWIVKTMQENSVPSKD","proteolysis of gp120 in 10x concentrated CHO supernatant, western blot, with or without EGTA","inhibition of proteolysis of gp120 in CHO cell supernatant with EGTA, a calcium-chelating agent suggested that C1s is the major protease responsible for gp120 cleavage"
